Test results from article PMC4425475.
One block for each substance: values may come before it.

Assays:
[1] = biological target: S-layer isolated from S. acidocaldarius strain MW001 (WT) (S. acidocaldarius (endogenous in MW001)) (UniProt Q4J6E5); assay: co-sedimentation
[2] = biological target: sFlaF (soluble FlaF, Δ34FlaF, residues 35-164 with an N-terminal His-tag) (S. acidocaldarius); assay: SAXS
[3] = biological target: sFlaF-L101Y (S. acidocaldarius); assay: SEC
[4] = biological target: sFlaF-R161A (S. acidocaldarius); assay: SEC

- percent bound [1]: 50%
- stoichiometry N [2]: 2
Substance: sFlaF (soluble FlaF, Δ34FlaF, residues 35-164 with an N-terminal His-tag) (domain or fragment)

- stoichiometry N [3]: 2
Substance: sFlaF-L101Y (domain or fragment)

- stoichiometry N [4]: 2
Substance: sFlaF-R161A (domain or fragment)
